This is an account of results in patent publication US20240002497A1 (Merck Sharp & Dohme, published 2024).

What is called EC50 is the concentration that produces a half-maximal response.

In test [1] the target is T1, huNav1.7α + β1-β2-β3 (human, UniProt Q15858 1-1988; A5A6L6 19-218; O60939 30-215; Q2KI11 23-215).
T1 construct: Cell line (CHO FlpIn, HEK FlpIn, transient HEK293T) is named under assay; also called huNav1.7-beta1-beta2-beta3; human Nav1.7α with Navβ1, Navβ2 and Navβ3
In words: binding FACS, CHO FlpIn cells. The procedure, abridged: (§1)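 Cells at 1×10^5 per well incubated 30 min at 4 °C with purified FLAG3-tagged ISVD in FACS buffer (PBS, 10% FBS, NaN₃); bound ISVD detected via murine anti-Flag by flow cytometry, dead cells excluded with 1 μg/mL propidium iodide.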

In test [2] the target is T2, huNav1.7α + β1 (HEKa/β1) (human, UniProt Q15858 1-1988; Q07699 19-218).
T2 construct: also called HEKa/β1 huNav1.7α
In words: binding FACS, HEKa/β1 cells. The protocol: (§2) Binding of the ISVDs to cell-expressed Nav1.7α was detected via murine anti-Flag (Sigma, catalog #F1804). Briefly, cells were resuspended in FACS buffer (PBS, 10% FBS, NaN₃) and transferred to a 96-well V-bottom plate at 1×10^5 cells/well. Purified FLAG3-tagged ISVD was diluted in FACS buffer and added to the cells for 30 minutes at 4° C. […] Prior to the read-out, the samples were resuspended in 1 μg/mL propidium iodide (Sigma, catalog #P4170) to exclude dead cells. Between each step, the cells were centrifuged for 5 minutes at 200 grams and washed with 100 μL/well FACS buffer.

For test [3], the target named is T3, rhNav1.7α + β1-β2-β3 (rhesus monkey).
T3 construct: also called rhNav1.7-beta1-beta2-beta3; rhNav1.7-β1-β2-β3
In words: binding FACS, CHO FlpIn. The procedure, abridged: as §1

Test [4] has as its target T4, huNav1.7α + β1-β2-β3 (human, UniProt Q15858 1-1988; A5A6L6 19-218; O60939 30-215; Q2KI11 23-215).
T4 construct: also called huNav1.7-beta1-beta2-beta3; huNav1.7-β1-β2-β3
In words: binding FACS, CHO FlpIn. The procedure, abridged: as §1

The target of test [5] is T5, muNav1.7α (murine, UniProt Q62205 1-1984).
T5 construct: HEK JmpIn cells; also called murine Nav1.7α
Put plainly: binding FACS, HEK JmpIn. How it is done:
as §2

Test [6] addresses T6, huNav1.7α+β1-β2-β3 (human, UniProt Q15858 1-1988; Q07699 19-218; O60939 30-215; Q9NY72 23-215).
T6 construct: 5N11S variant; also called huNav1.7-beta1-beta2-beta3; huNav1.7α+Navβ1-Navβ2-Navβ3
Put plainly: binding FACS, CHO FlpIn cells. The procedure, abridged:
as §1

B1: F010301617 (VHH)
VHH: EVQLVESGGGLVQAGGSLRLSCAASVRPFSTSAMGWFRQAPEKEREAVAGILWNGIVTYYADSVKGRFTISRDNAKNEVYLQMNKLKPEDTAVYYCALDRDYGGRSQSAYEYEYWGQGTLVTVSS
notes: F100cQ vs F0103362B08 (Kabat)
With B1, the concentration giving a half-maximal response (EC50) in test [1] was determined as 170 nM; in test [2], 44 nM.

B2: F010301619 (VHH)
VHH: EVQLVESGGGLVQAGGSLRLSCAASVRPFSTSAMGWFRQAPEKEREAVAGILWNGIVTYYADSVKGRFTISRDNAKNEVYLQMNKLKPEDTAVYYCALDRDYGGRSKSAYEYEYWGQGTLVTVSS
notes: F100cK vs F0103362B08 (Kabat)
B2: the EC50 was found to be 180 nM in test [1] and 47 nM in test [2].

B3: F010301627 (VHH)
VHH: EVQLVESGGGLVQAGGSLRLSCAASVRPFSTSAMGWFRQAPEKEREAVAAILWNGIVTYYADSVKGRFTISRDNAKNEVYLQMNKLKPEDTAVYYCALDRDYGGRSFSAYEYEYWGQGTLVTVSS
notes: G50A vs F0103362B08 (Kabat)
As for B3, the EC50 in test [1] stood at 76 nM; in test [2], 23 nM.

B4: F010301622 (VHH)
VHH: EVQLVESGGGLVQAGGSLRLSCAASVRPFSTSAMGWFRQAPEKEREAVAGILWNGIVTYYADSVKGRFTISRDNAKNEVYLQMNKLKPEDTAVYYCALDRDYGGRSFSADEYEYWGQGTLVTVSS
notes: Y100fD vs F0103362B08 (Kabat)
For B4, the results for the EC50 in test [1] and in test [2] were 170 nM and 40 nM, respectively.

B5: F010301629 (VHH)
VHH: EVQLVESGGGLVQAGGSLRLSCAASVRPFSTSAMGWFRQAPEKEREAVASILWNGIVTYYADSVKGRFTISRDNAKNEVYLQMNKLKPEDTAVYYCALDRDYGGRSFSAYEYEYWGQGTLVTVSS
notes: G50S vs F0103362B08 (Kabat)
For B5, the EC50 in test [1] turned out to be 120 nM; in test [2], 42 nM.

B6: F010301618 (VHH)
VHH: EVQLVESGGGLVQAGGSLRLSCAASVRPFSTSAMGWFRQAPEKEREAVAGILWNGIVTYYADSVKGRFTISRDNAKNEVYLQMNKLKPEDTAVYYCALDRDYGGRSFSAYEYEHWGQGTLVTVSS
notes: Y102H vs F0103362B08 (Kabat)
Take B6: the EC50 in test [1] is 190 nM; in test [2] it was 39 nM.

B7: F010301621 (VHH)
VHH: EVQLVESGGGLVQAGGSLRLSCAASVRPFSTSAMGWFRQAPEKEREAVAGILWNGIVTYYADSVKGRFTISRDNAKNEVYLQMNKLKPEDTAVYYCALDRDYGGRSFSAGEYEYWGQGTLVTVSS
notes: Y100fG vs F0103362B08 (Kabat)
Turning to B7, the values for the concentration for a half-maximal effect (EC50) in test [1] and in test [2] were 150 nM and 34 nM, respectively.

B8: F010301868 (VHH)
VHH: EVQLVESGGGVVQPGGSLRLSCATTSRAFIRDVFTGWYRRVPGKERELVARIYNGGNTNYADFAKGRFTISRDNAKKMVYLQMNSLRPEDTALYYCLFSGTINTGREYRSGDYWGQGTLVTVSS
notes: also called F0103464B09(L11V, S68T, T79Y, R81Q, S82aN, N82bS, K83R, G88A, V89L)
Take B8: the concentration for a half-maximal effect (EC50) was determined as 62 nM in test [3], 6.3 nM in test [4] and 11 nM in test [5]. Also, in test [4], the Bmax was determined as 98%.

B9: F010301872 (VHH)
VHH: EVQLVESGGGVVQPGGSLRLSCATSSRAFIRDVFTGWYRRVPGKERELVARIYNGGNTNYADFAKGRFTISRDNAKKMVYLQMNSLRPEDTALYYCLFSGTINTGREYRSGDYWGQGTLVTVSS
notes: also called F0103464B09(L11V, T25S, S68T, T79Y, R81Q, S82aN, N82bS, K83R, G88A, V89L)
On to B9, for which the concentration for a half-maximal effect (EC50) in test [3] is 57 nM; in test [4] it was 6.8 nM; in test [5], 21 nM. Further, the Bmax in test [4] was 100%.

B10: F010301871 (VHH)
VHH: EVQLVESGGGVVQPGGSLRLSCAATSRAFIRDVFTGWYRRVPGKERELVARIYNGGNTNYADFAKGRFTISRDNAKKMVYLQMNSLRPEDTALYYCLFSGTINTGREYRSGDYWGQGTLVTVSS
notes: also called F0103464B09(L11V, T24A, S68T, T79Y, R81Q, S82aN, N82bS, K83R, AG88, V89L)
As to B10, the concentration for a half-maximal effect (EC50) turned out to be 37 nM in test [3], 5.8 nM in test [4] and 24 nM in test [5]. Moreover, the Bmax in test [4] is 100%.

B11: F010301869 (VHH)
VHH: EVQLVESGGGVVQPGGSLRLSCATTSRAFIRDVFTGWYRRVPGKERELVARIYNGGNTNYADFAKGRFTISRDNAKKTVYLQMNSLRPEDTALYYCLFSGTINTGREYRSGDYWGQGTLVTVSS
notes: also called F0103464B09(L11V, S68T, M77T, T79Y, R81Q, S82aN, N82bS, K83R, G88A, V89L)
B11: the EC50 was 96 nM in test [3], 7.6 nM in test [4] and 17 nM in test [5]. In test [4], the Bmax amounted to 100%.

B12: F010301301 (VHH)
VHH: EVQLVESGGGLVQAGGSLRLSCDASGRILRTGYMRWHRQGAGKQREFVARITDDSATDYADSVKGRFTISRDNAKNTVYLQMNNLNPEDTAVYYCEALVTASVRGGSIHSGTYWGRGTLVTVSS
notes: vs 387G05: I31T
For B12, the half-maximal effective concentration (EC50) in test [6] turned out to be 7.3 nM.

B13: F010301335 (VHH)
VHH: EVQLVESGGGLVQAGGSLRLSCDASGRILRIGYMRWHRQGAGKQREFVAVITDDSATDYADSVKGRFTISRDNAKNTVYLQMNNLNPEDTAVYYCEALVTASVRGGSIHSGTYWGRGTLVTVSS
notes: vs 387G05: R50V
In test [6], B13 displayed a 50% effective concentration (EC50) of 7.9 nM.

B14: F010301409 (VHH)
VHH: EVQLVESGGGLVQAGGSLRLSCDASGRILRIGYMRWHRQGAGKQREFVARITDDSATDYADSVKGRFTISRDNAKNTVYLQMNNLNPEDTAVYYCEALVTASVRGGSIVSGTYWGRGTLVTVSS
notes: vs 387G05: H100fV
In test [6], B14 showed a concentration giving a half-maximal response (EC50) of 5.1 nM.

B15: F010301309 (VHH)
VHH: EVQLVESGGGLVQAGGSLRLSCDASGRIVRIGYMRWHRQGAGKQREFVARITDDSATDYADSVKGRFTISRDNAKNTVYLQMNNLNPEDTAVYYCEALVTASVRGGSIHSGTYWGRGTLVTVSS
notes: vs 387G05: L29V
Take B15: in test [6], the EC50 amounted to 5.4 nM.

B16: F010301313 (VHH)
VHH: EVQLVESGGGLVQAGGSLRLSCDASGRILRIGYMKWHRQGAGKQREFVARITDDSATDYADSVKGRFTISRDNAKNTVYLQMNNLNPEDTAVYYCEALVTASVRGGSIHSGTYWGRGTLVTVSS
notes: vs 387G05: R35K
The molecule B16 had an EC50 in test [6] of 5.5 nM.

B17: F010301418 (VHH)
VHH: EVQLVESGGGLVQAGGSLRLSCDASGRILRIGYMRWHRQGAGKQREFVARITDDSATDYADSVKGRFTISRDNAKNTVYLQMNNLNPEDTAVYYCEALVTASVRGGSIHSGTWWGRGTLVTVSS
notes: vs 387G05: Y102W
In turn, B17 displayed an EC50 in test [6] of 4.9 nM.

B18: F010301425 (VHH)
VHH: EVQLVESGGGLVQAGGSLRLSCDASGRILRIGYMRWHRQGAGKQREFVARITDDSATDYADSVKGRFTISRDNAKNTVYLQMNNLNPEDTAVYYCEALVTASVRVGSIHSGTYWGRGTLVTVSS
notes: vs 387G05: G100bV
With B18, in test [6], the EC50 amounted to 15 nM.

B19: F010301328 (VHH)
VHH: EVQLVESGGGLVQAGGSLRLSCDASGRILRIGYMRWHRQGAGKQREFVARITDDSAVDYADSVKGRFTISRDNAKNTVYLQMNNLNPEDTAVYYCEALVTASVRGGSIHSGTYWGRGTLVTVSS
notes: vs 387G05: T57V
Consider B19, for which the EC50 in test [6] was 5 nM.

B20: F010301416 (VHH)
VHH: EVQLVESGGGLVQAGGSLRLSCDASGRILRIGYMRWHRQGAGKQREFVARITDDSATDYADSVKGRFTISRDNAKNTVYLQMNNLNPEDTAVYYCEALVTASVRGGSIHSGQYWGRGTLVTVSS
notes: vs 387G05: T101Q
Turning to B20, the binding result in test [6] is “no binding”.

B21: F010301360 (VHH)
VHH: EVQLVESGGGLVQAGGSLRLSCDASGRILRIGYMRWHRQGAGKQREFVARITDDSTTDYADSVKGRFTISRDNAKNTVYLQMNNLNPEDTAVYYCEALVTASVRGGSIHSGTYWGRGTLVTVSS
notes: vs 387G05: A56T
B21 came in with an EC50 in test [6] of 5.2 nM.

B22: F010301304 (VHH)
VHH: EVQLVESGGGLVQAGGSLRLSCDASGRILRWGYMRWHRQGAGKQREFVARITDDSATDYADSVKGRFTISRDNAKNTVYLQMNNLNPEDTAVYYCEALVTASVRGGSIHSGTYWGRGTLVTVSS
notes: vs 387G05: I31W
In test [6], B22 returned an EC50 of 5.7 nM.

B23: F010301440 (VHH)
VHH: EVQLVESGGGLVQAGGSLRLSCDASGRILRIGYMRWHRQGAGKQREFVARITDDSATDYADSVKGRFTISRDNAKNTVYLQMNNLNPEDTAVYYCEALVTASVRGGSIHSTTYWGRGTLVTVSS
notes: vs 387G05: G100hT
With B23, in test [6], the EC50 stood at 5.7 nM.

B24: F010301387 (VHH)
VHH: EVQLVESGGGLVQAGGSLRLSCDASGRILRIGYMRWHRQGAGKQREFVARITDDSATDYADSVKGRFTISRDNAKNTVYLQMNNLNPEDTAVYYCEALVTASARGGSIHSGTYWGRGTLVTVSS
notes: vs 387G05: V100A
Consider B24, for which the EC50 in test [6] is 5.2 nM.
